These results are taken from PMC11986143 (Nature Communications, 2025).

The target of the experiment is integrin αvβ3 on bEnd.3 vesicles (mouse (endogenous in bEnd.3), UniProt P43406 31-1044; O54890 26-787). In words: SPR.

[ ]: non-standard residue; d: D form.

Chain of integrin αvβ3 on bEnd.3 vesicles (P43406 31-1044, chain 1 of 2): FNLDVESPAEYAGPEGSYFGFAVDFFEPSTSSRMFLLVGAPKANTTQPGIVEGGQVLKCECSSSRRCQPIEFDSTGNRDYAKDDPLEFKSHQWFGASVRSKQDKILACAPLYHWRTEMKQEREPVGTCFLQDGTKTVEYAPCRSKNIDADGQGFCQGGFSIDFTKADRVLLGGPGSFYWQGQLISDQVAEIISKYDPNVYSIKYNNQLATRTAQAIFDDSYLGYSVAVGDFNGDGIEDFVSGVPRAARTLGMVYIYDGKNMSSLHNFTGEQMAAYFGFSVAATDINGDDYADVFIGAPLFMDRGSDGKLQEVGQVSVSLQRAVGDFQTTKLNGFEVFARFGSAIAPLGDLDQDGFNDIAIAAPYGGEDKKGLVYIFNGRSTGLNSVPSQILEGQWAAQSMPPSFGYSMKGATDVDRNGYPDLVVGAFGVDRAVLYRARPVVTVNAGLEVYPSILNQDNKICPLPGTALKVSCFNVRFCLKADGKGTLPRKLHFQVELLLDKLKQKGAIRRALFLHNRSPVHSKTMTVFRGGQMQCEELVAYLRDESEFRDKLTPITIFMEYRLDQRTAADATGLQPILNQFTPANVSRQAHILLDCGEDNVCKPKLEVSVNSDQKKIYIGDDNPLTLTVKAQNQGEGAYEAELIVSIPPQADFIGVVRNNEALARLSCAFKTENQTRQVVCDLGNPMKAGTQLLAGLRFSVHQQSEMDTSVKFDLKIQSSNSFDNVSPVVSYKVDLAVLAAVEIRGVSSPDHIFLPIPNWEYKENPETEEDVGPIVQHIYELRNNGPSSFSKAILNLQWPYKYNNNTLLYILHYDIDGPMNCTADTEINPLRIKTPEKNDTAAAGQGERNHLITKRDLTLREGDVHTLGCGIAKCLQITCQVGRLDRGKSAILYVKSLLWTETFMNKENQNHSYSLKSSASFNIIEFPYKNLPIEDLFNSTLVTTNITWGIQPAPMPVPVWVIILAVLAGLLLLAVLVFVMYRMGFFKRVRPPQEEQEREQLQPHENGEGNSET
Chain of integrin αvβ3 on bEnd.3 vesicles (O54890 26-787, chain 2 of 2): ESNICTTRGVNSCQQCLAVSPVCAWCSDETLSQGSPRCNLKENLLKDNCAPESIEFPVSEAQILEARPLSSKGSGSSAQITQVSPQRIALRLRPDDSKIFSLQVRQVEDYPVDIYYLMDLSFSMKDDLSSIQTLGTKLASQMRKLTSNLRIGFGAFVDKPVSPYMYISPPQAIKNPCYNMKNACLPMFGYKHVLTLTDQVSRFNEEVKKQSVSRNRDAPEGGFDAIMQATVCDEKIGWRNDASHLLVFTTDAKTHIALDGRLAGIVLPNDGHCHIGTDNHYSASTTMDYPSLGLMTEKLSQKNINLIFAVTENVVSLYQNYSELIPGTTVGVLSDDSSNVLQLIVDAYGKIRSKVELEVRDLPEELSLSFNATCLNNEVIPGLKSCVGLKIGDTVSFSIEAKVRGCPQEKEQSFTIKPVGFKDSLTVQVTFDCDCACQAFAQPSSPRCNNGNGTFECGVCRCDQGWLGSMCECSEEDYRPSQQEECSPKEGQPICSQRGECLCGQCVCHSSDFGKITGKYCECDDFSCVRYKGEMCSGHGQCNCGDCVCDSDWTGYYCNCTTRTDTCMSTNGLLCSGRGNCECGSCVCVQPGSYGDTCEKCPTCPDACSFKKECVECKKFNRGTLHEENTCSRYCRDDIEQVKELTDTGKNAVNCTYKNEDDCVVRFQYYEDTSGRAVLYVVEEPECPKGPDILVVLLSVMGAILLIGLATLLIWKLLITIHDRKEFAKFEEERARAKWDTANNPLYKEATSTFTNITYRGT

The molecule cyclo(RGD[dY]K) [c(RGDyK) peptide] had a Kd of 17.1 µM.
